{"source": "paper PMC8741891", "molecular_target": "Escherichia coli heat-labile enterotoxin holotoxin (human enterotoxigenic strain PE0415), nicked and reduced (E. coli (human enterotoxigenic strain PE0415)) (UniProt P43530)", "assay": "ELISA; […] (1 ug/mL) […] (20 ug/mL, […]) for 1 h at 37 C; […]"}
{"substance": "protein disulfide isomerase, reduced (from UniProt P07237 18-508) (enzyme)", "values": [{"measurement": "percent of A1 released from the holotoxin by PDI", "result": 7, "unit": "%"}]}
